The values below come from patent US20060177880A1 (ROCHE DIAGNOSTICS OPERATIONS, published 2006).

The target of this experiment is T1, ILEU (Leukocyte elastase inhibitor) (human, UniProt P30740 1-379).
T1 sequence: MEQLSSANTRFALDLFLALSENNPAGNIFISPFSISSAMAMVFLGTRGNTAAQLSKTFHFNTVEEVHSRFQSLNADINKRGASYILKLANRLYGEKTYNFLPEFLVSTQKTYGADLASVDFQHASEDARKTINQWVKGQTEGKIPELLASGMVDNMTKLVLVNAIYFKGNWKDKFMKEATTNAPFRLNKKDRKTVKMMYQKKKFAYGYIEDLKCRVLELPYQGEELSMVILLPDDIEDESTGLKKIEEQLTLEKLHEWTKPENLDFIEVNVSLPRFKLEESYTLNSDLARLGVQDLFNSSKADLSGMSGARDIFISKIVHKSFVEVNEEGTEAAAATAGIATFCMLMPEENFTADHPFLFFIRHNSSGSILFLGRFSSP
Nature of the experiment: 2D gel (IEF and SDS-PAGE) of tumor tissue lysate, spot identified by MALDI-TOF mass spectrometry. The protocol:
For IEF, 3 ml of the suspension are mixed with 12 ml sample buffer (7 M urea, 2 M thiourea, 2% CHAPS, 0.4% IPG buffer pH 6-9, 0.5% DTT) and incubated for 1 h. The samples are concentrated in an Amicon® Ultra-15 device (Millipore GmbH, Schwalbach, Germany) and the protein concentration is determined using the Bio-Rad® protein assay (Cat. No. 500-0006; Bio-Rad Laboratories GmbH, Munchen, Germany) following the instructions of the supplier's manual. To a volume corresponding to 1.5 mg of protein sample buffer is added to a final volume of 350 μl. This solution is used to rehydrate IPG strips pH 6-9 (Amersham Biosciences, Freiburg, Germany) overnight. The IEF is performed using the following gradient protocol: 1.) 1 minute to 500 V; 2.) 2 h to 3,500 V; 3.) 22 h at constant 3,500 V giving rise to 82 kVh. After IEF, strips are stored at −80° C. or directly used for SDS-PAGE. […]
Each patient is analyzed separately by image analysis with the ProteomeWeaver® software (Definiens AG, Germany, München). […] For each patient, 4 gels from the tumor sample are compared with 4 gels each from adjacent normal and stripped mucosa tissue and analyzed for distinctive spots corresponding to differentially expressed proteins. […]

B1: PRN3 (proteinase 3) (enzyme)
chain: IVGGHEAQPHSRPYMASLQMRGNPGSHFCGGTLIHPSFVLTAAHCLRDIPQRLVNVVLGAHNVRTQEPTQQHFSVAQVFLNNYDAENKLNDVLLIQLSSPANLSASVATVQLPQQDQPVPHGTQCLAMGWGRVGAHDPPAQVLQELNVTVVTFFCRPHNICTFVPRRKAGICFGDSGGPLICDGIIQGIDSFVIWGCATRLFPDFFTRVALYVDWIRSTLR
notes: Endogenous protein in lysates of human colorectal tumor tissue, with an apparent MW of ~28 kDa on the blot; also called uncomplexed PRN3
For B1, the binding result is given as “binds”.
